Results from patent US20240182536A1 (MURAL ONCOLOGY, published 2024).
Read-outs that look alike come from different tables or passages of the source.

T1: human IL-18 binding protein (human, UniProt O95998 31-194)
T1 sequence (looked up): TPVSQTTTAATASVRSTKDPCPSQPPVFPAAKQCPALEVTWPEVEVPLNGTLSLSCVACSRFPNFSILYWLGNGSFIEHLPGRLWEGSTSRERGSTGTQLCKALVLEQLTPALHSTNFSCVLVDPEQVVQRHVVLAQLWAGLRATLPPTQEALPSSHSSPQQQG

T2: IL-18 receptors on HEK-Blue IL-18 reporter cells (UniProt Q13478 19-541; O95256 20-599, limits assumed)
T2 sequence (looked up) 1: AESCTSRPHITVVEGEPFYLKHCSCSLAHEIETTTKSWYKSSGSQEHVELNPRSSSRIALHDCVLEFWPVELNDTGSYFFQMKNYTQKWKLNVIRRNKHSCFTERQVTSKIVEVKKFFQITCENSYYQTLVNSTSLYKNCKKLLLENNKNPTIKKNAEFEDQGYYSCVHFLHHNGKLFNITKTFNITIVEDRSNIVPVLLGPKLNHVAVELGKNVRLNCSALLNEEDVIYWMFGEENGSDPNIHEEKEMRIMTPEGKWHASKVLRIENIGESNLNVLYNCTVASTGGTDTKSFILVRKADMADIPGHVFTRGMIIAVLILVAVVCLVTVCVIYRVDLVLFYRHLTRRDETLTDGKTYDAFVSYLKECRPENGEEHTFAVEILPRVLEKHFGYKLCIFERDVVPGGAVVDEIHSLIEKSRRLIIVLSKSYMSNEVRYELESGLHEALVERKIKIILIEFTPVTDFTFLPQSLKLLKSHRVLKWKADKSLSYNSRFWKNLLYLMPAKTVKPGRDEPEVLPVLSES
T2 sequence (looked up) 2: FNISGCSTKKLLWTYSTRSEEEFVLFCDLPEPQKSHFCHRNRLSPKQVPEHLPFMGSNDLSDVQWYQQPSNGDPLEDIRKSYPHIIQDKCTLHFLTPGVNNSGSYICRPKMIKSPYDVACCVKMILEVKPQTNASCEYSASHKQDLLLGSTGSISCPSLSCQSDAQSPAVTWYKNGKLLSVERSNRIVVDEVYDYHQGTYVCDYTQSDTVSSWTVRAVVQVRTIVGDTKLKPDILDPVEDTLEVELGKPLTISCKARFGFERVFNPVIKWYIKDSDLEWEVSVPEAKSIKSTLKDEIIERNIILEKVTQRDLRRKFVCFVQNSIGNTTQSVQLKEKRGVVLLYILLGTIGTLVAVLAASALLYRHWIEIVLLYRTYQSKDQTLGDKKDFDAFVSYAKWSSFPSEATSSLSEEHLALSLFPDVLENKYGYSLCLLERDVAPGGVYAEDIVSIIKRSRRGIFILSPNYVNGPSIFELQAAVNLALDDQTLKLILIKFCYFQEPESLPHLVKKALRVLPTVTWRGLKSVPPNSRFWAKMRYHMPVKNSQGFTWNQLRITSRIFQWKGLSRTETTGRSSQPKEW

T3: interleukin 18 binding protein (IL-18BP) (UniProt O95998 31-194)
T3 sequence (looked up): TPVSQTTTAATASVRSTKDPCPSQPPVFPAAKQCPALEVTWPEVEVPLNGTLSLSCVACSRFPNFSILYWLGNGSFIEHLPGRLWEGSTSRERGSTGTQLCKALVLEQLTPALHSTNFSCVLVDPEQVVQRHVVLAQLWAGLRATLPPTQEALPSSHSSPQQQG

T4: IL-18 receptors on HEK-Blue IL-18 reporter cells (UniProt Q13478 19-541; O95256 20-599, limits assumed)
T4 sequence (looked up) 1: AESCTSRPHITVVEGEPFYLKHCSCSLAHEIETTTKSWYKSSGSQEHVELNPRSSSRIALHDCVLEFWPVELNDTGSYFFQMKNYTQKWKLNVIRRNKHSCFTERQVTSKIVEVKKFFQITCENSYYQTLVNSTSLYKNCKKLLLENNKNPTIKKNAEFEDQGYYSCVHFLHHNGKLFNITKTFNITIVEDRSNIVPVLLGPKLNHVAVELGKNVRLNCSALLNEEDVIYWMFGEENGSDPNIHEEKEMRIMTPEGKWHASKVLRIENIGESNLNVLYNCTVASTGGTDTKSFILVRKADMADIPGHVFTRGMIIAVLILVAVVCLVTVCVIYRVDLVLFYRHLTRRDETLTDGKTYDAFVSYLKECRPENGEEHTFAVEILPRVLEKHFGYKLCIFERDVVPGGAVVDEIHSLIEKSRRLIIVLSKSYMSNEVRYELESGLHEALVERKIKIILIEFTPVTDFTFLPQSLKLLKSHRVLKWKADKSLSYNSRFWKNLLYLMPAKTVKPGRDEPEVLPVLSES
T4 sequence (looked up) 2: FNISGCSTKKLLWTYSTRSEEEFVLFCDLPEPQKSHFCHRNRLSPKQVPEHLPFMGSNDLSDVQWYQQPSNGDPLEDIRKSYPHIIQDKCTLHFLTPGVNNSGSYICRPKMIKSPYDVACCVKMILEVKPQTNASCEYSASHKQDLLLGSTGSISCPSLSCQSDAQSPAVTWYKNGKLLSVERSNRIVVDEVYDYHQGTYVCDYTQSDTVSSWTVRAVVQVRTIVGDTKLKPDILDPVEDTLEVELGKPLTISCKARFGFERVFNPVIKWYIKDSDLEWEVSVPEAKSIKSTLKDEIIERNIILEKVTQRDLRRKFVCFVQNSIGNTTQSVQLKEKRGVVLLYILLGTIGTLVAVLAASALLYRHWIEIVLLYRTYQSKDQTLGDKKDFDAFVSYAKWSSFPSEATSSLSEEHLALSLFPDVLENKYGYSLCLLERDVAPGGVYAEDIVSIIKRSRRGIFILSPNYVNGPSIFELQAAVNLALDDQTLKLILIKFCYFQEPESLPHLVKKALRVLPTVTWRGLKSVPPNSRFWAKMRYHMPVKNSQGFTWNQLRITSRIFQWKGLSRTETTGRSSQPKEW


Tests used:
Assay in all cases: cell-based or functional assay
[1] = target: T1, human IL-18 binding protein
[2] = target: T2, IL-18 receptors on HEK-Blue IL-18 …
[3] = target: T3, interleukin 18 binding protein (IL-18BP)
[4] = target: T4, IL-18 receptors on HEK-Blue IL-18 …; remark: listed apart in the source

Binder	HEK-Blue activity, +100 nM BP, DF-10000 [1]	HEK-Blue activity, +100 nM BP, DF-100,000 [1]	HEK-Blue activity, +100 nM BP, DF-1,000,000 [1]	Ratio (-BP/+BP), DF-10000 [1]	Ratio (-BP/+BP), DF-100,000 [1]	Ratio (-BP/+BP), DF-1,000,000 [1]	HEK-Blue activity, No BP, DF-10000 [2]	HEK-Blue activity, No BP, DF-100,000 [2]	HEK-Blue activity, No BP, DF-1,000,000 [2]	HEK-Blue activity, +100 nM BP, DF-10000 [3]	HEK-Blue activity, +100 nM BP, DF-100,000 [3]	HEK-Blue activity, +100 nM BP, DF-1,000,000 [3]	Ratio (-BP/+BP), DF-10000 [3]	Ratio (-BP/+BP), DF-100,000 [3]	Ratio (-BP/+BP), DF-1,000,000 [3]	HEK-Blue activity, No BP, DF-10000 [4]	HEK-Blue activity, No BP, DF-100,000 [4]	HEK-Blue activity, No BP, DF-1,000,000 [4]
yeast display IL-18 variant K53S, S55K (ligand) YFGKLESKLSVIRNLNDQVLFIDQGNRPLFEDMTDSDMRDNAPRTIFIISMYSDKQPRGMAVTISVKSEKISTLSSENKIISFKEMNPPDNIKDTKSDIIFFQRSVPGHDNKMQFESSSYEGYFLASEKERDLFKLILKKEDELGDRSIMFTVQNED	2.03	1.41	0.53	0.98	0.96	0.95	2	1.35	0.5	–	–	–	–	–	–	–	–	–
IL-18 variant T34N, S36N, D40E, N41G, K53S, S55Q, R104N, H109Y (ligand) YFGKLESKLSVIRNLNDQVLFIDQGNRPLFEDMNDNDMREGAPRTIFIISMYSDQQPRGMAVTISVKSEKISTLSSENKIISFKEMNPPDNIKDTKSDIIFFQNSVPGYDNKMQFESSSYEGYFLASEKERDLFKLILKKEDELGDRSIMFTVQNED	–	–	–	–	–	–	–	–	–	0.09	0.09	0.09	0.95	1.01	0.95	0.09	0.09	0.08
IL-18 variant T34S, S36Y, D37N, D40E, N41Q, K53Y, S55I (ligand) YFGKLESKLSVIRNLNDQVLFIDQGNRPLFEDMSDYNMREQAPRTIFIISMYYDIQPRGMAVTISVKSEKISTLSSENKIISFKEMNPPDNIKDTKSDIIFFQRSVPGHDNKMQFESSSYEGYFLASEKERDLFKLILKKEDELGDRSIMFTVQNED	–	–	–	–	–	–	–	–	–	0.09	0.09	0.12	0.98	0.96	0.75	0.09	0.09	0.09
IL-18 variant S36F, N41E, K53W (ligand) YFGKLESKLSVIRNLNDQVLFIDQGNRPLFEDMTDFDMRDEAPRTIFIISMYWDSQPRGMAVTISVKSEKISTLSSENKIISFKEMNPPDNIKDTKSDIIFFQRSVPGHDNKMQFESSSYEGYFLASEKERDLFKLILKKEDELGDRSIMFTVQNED	–	–	–	–	–	–	–	–	–	0.09	0.1	0.09	1	1.01	0.91	0.09	0.1	0.09
IL-18 variant T34E, S36P, D40A, N41G, K53T, S55R (ligand) YFGKLESKLSVIRNLNDQVLFIDQGNRPLFEDMEDPDMRAGAPRTIFIISMYTDRQPRGMAVTISVKSEKISTLSSENKIISFKEMNPPDNIKDTKSDIIFFQRSVPGHDNKMQFESSSYEGYFLASEKERDLFKLILKKEDELGDRSIMFTVQNED	–	–	–	–	–	–	–	–	–	0.1	0.09	0.09	0.98	1.01	0.96	0.09	0.1	0.09
IL-18 variant K53G, S55I, R104K, P107Y (ligand) YFGKLESKLSVIRNLNDQVLFIDQGNRPLFEDMTDSDMRDNAPRTIFIISMYGDIQPRGMAVTISVKSEKISTLSSENKIISFKEMNPPDNIKDTKSDIIFFQKSVYGHDNKMQFESSSYEGYFLASEKERDLFKLILKKEDELGDRSIMFTVQNED	–	–	–	–	–	–	–	–	–	0.11	0.09	0.09	0.99	1	0.95	0.1	0.09	0.09
IL-18 variant S36Q, D40T, K53P, S55L (ligand) YFGKLESKLSVIRNLNDQVLFIDQGNRPLFEDMTDQDMRTNAPRTIFIISMYPDLQPRGMAVTISVKSEKISTLSSENKIISFKEMNPPDNIKDTKSDIIFFQRSVPGHDNKMQFESSSYEGYFLASEKERDLFKLILKKEDELGDRSIMFTVQNED	–	–	–	–	–	–	–	–	–	0.09	0.09	0.09	1.09	1.44	0.9	0.09	0.13	0.08
IL-18 variant S36E, D37E, D40V, N41S, K53Y, S55V, H109Y (ligand) YFGKLESKLSVIRNLNDQVLFIDQGNRPLFEDMTDEEMRVSAPRTIFIISMYYDVQPRGMAVTISVKSEKISTLSSENKIISFKEMNPPDNIKDTKSDIIFFQRSVPGYDNKMQFESSSYEGYFLASEKERDLFKLILKKEDELGDRSIMFTVQNED	–	–	–	–	–	–	–	–	–	0.09	0.1	0.1	1.03	0.92	0.89	0.09	0.09	0.09
IL-18 variant K8R, L9G, S10C, K53G, S55A, R104G (ligand) YFGKLESRGCVIRNLNDQVLFIDQGNRPLFEDMTDSDMRDNAPRTIFIISMYGDAQPRGMAVTISVKSEKISTLSSENKIISFKEMNPPDNIKDTKSDIIFFQGSVPGHDNKMQFESSSYEGYFLASEKERDLFKLILKKEDELGDRSIMFTVQNED	–	–	–	–	–	–	–	–	–	0.12	0.14	0.1	0.88	0.92	1.03	0.1	0.13	0.1
IL-18 variant K53H, S55Y (ligand) YFGKLESKLSVIRNLNDQVLFIDQGNRPLFEDMTDSDMRDNAPRTIFIISMYHDYQPRGMAVTISVKSEKISTLSSENKIISFKEMNPPDNIKDTKSDIIFFQRSVPGHDNKMQFESSSYEGYFLASEKERDLFKLILKKEDELGDRSIMFTVQNED	–	–	–	–	–	–	–	–	–	0.1	0.1	0.11	0.91	0.99	0.8	0.09	0.09	0.09
